{
  "source": "patent US20190071490A1",
  "about": "“Preventing Post-Ictal Headaches” (Beth Israel Deaconess Medical Center, Inc., priority 2017, published 2019)",
  "key": {"[1]": {"target": "human α-CGRP 1-37 (WT) (human)", "sequence (peptide, as listed by the source)": "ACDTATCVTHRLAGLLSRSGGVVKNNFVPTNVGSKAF", "test": "Biacore, 25°C, Fab over biotinylated CGRP on SA chip"}, "[2]": {"target": "human α-CGRP 1-37 (WT) (human)", "test": "Biacore, 37°C, Fab over biotinylated CGRP on SA chip"}, "[3]": {"target": "rat α-CGRP (1-37) (rat)", "sequence (peptide, as listed by the source)": "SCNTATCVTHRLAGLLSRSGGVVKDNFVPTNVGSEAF", "test": "Biacore, 37°C, Fab over biotinylated CGRP on SA chip"}, "[4]": {"target": "human α-CGRP fragment 25-37 (human)", "test": "Biacore, 25°C, Fab over biotinylated fragment (FIG. 1)"}, "[5]": {"target": "human α-CGRP 1-37 (WT) (human)", "test": "Biacore SPR, 25 °C, Fab flowed across N-biotinylated peptide on SA chip"}, "[6]": {"target": "human α-CGRP K35A (19-37) (human)", "test": "Biacore SPR, 25 °C, Fab flowed across peptide on SA chip; KD of alanine mutant relative to parent fragment 19-37"}, "[7]": {"target": "human α-CGRP F27A (25-37) (human)", "test": "Biacore SPR, 25 °C, Fab flowed across peptide on SA chip; KD of alanine mutant relative to parent fragment 25-37"}, "[8]": {"target": "human α-CGRP G33A (25-37) (human)", "test": "Biacore SPR, 25 °C, Fab flowed across peptide on SA chip; KD of alanine mutant relative to parent fragment 25-37"}, "[9]": {"target": "human α-CGRP N31A (25-37) (human)", "test": "Biacore SPR, 25 °C, Fab flowed across peptide on SA chip; KD of alanine mutant relative to parent fragment 25-37"}, "[10]": {"target": "human α-CGRP P29A (25-37) (human)", "test": "Biacore SPR, 25 °C, Fab flowed across peptide on SA chip; KD of alanine mutant relative to parent fragment 25-37"}, "[11]": {"target": "human α-CGRP S34A (25-37) (human)", "test": "Biacore SPR, 25 °C, Fab flowed across peptide on SA chip; KD of alanine mutant relative to parent fragment 25-37"}, "[12]": {"target": "human α-CGRP T30A (25-37) (human)", "test": "Biacore SPR, 25 °C, Fab flowed across peptide on SA chip; KD of alanine mutant relative to parent fragment 25-37"}, "[13]": {"target": "human α-CGRP V28A (25-37) (human)", "test": "Biacore SPR, 25 °C, Fab flowed across peptide on SA chip; KD of alanine mutant relative to parent fragment 25-37"}, "[14]": {"target": "human α-CGRP V32A (25-37) (human)", "test": "Biacore SPR, 25 °C, Fab flowed across peptide on SA chip; KD of alanine mutant relative to parent fragment 25-37"}, "[15]": {"target": "human α-CGRP fragment 19-37 (human)", "test": "Biacore SPR, 25 °C, Fab flowed across N-biotinylated peptide on SA chip; mean ± SD of two independent measurements on different chips"}, "[16]": {"target": "human α-CGRP fragment 25-37 (human)", "test": "Biacore SPR, 25 °C, Fab flowed across N-biotinylated peptide on SA chip; mean ± SD of two independent measurements on different chips"}},
  "data": [
    {"substance": "anti-CGRP antibody 4901, Fab fragment", "values": [
      {"measurement": "Kd", "setting": "[1]", "value": 61, "unit": "nM"},
      {"measurement": "Kd", "setting": "[2]", "value": 139, "unit": "nM"},
      {"measurement": "Kd", "setting": "[3]", "value": 3.4, "unit": "nM"},
      {"measurement": "fold lower affinity than to full length human α-CGRP", "setting": "[4]", "value": 6, "unit": "fold"},
      {"measurement": "Kd", "setting": "[5]", "value": 60.5, "unit": "nM"},
      {"measurement": "KD(mutant/parent)", "setting": "[6]", "value": 0.3},
      {"measurement": "KD(mutant/parent)", "setting": "[7]", "value": 0.8},
      {"measurement": "KD(mutant/parent)", "setting": "[8]", "value": 1.3},
      {"measurement": "KD(mutant/parent)", "setting": "[9]", "value": 0.3},
      {"measurement": "KD(mutant/parent)", "setting": "[10]", "value": 0.2},
      {"measurement": "KD(mutant/parent)", "setting": "[11]", "value": 0.8},
      {"measurement": "KD(mutant/parent)", "setting": "[12]", "value": 0.2},
      {"measurement": "KD(mutant/parent)", "setting": "[13]", "value": 0.8},
      {"measurement": "KD(mutant/parent)", "setting": "[14]", "value": 0.9},
      {"measurement": "Kd", "setting": "[15]", "value": 52, "unit": "nM"},
      {"measurement": "Kd", "setting": "[16]", "value": 296, "unit": "nM"}
    ]}
  ]
}
